T1: Recombinant mouse VEGFR1-Fc (R&D Systems) (mouse, UniProt P35969 27-759, limits assumed)
T1 construct: bought; not shown: Fc part of the bought fusion, not described
T1 sequence (looked up): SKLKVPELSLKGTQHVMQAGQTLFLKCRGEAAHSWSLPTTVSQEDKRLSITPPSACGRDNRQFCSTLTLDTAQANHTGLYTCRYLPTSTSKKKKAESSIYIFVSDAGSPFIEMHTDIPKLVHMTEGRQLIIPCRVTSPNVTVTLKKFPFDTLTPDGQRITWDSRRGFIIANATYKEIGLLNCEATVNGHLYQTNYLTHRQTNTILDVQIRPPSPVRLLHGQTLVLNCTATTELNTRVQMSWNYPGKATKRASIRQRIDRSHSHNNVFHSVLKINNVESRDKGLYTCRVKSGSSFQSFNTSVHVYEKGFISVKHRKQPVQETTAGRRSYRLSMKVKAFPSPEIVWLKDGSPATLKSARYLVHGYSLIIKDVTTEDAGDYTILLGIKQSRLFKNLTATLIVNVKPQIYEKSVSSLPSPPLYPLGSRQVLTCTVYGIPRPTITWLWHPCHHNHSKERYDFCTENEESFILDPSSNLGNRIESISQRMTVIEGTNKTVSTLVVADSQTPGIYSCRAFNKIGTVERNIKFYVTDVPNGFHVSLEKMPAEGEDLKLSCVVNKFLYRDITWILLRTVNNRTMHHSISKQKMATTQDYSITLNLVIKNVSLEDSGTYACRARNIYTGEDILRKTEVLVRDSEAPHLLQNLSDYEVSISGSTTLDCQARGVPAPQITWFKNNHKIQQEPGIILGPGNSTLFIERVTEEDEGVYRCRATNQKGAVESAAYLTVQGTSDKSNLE

T2: mouse VEGFR1 (soluble antigen of the KinExA and SPR affinity assays) (mouse, UniProt P35969 23-759, limits assumed)
T2 sequence (looked up): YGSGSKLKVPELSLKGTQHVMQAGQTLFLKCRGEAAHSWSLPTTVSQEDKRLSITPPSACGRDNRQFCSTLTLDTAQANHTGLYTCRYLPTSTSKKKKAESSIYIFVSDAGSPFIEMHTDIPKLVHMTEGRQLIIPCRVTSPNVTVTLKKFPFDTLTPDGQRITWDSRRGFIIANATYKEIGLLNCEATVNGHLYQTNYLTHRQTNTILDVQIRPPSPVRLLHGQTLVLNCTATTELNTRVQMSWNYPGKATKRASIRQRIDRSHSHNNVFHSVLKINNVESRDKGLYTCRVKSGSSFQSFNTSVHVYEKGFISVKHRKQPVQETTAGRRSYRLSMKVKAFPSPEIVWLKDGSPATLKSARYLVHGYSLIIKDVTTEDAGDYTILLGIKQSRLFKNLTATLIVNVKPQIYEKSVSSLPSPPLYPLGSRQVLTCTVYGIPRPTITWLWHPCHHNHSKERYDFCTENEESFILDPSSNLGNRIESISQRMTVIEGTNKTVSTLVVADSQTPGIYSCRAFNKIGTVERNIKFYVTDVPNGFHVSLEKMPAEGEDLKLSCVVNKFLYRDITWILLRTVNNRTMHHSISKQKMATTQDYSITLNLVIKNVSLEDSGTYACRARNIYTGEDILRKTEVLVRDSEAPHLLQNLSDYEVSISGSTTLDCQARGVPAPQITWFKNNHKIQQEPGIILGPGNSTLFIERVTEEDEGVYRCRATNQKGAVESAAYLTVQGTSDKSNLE

B1: Domain 2 of hVEGFR1 alone (receptor)
chain: DTGRPFVEMYSEIPEIIHMTEGRELVIPCRVTSPNITVTLKKFPLDTLIPDGKRIIWDSRKGFIISNATYKEIGLLTCEATVNGHLYKTNYLTHRQ
notes: also called human VEGFR1 D2
B2: human VEGFA165 (ligand, UniProt P15692-4 27-191, looked up)
chain: APMAEGGGQNHHEVVKFMDVYQRSYCHPIETLVDIFQEYPDEIEYIFKPSCVPLMRCGGCCNDEGLECVPTEESNITMQIMRIKPHQGQHIGEMSFLQHNKCECRPKKDRARQENPCGPCSERRKHLFVQDPQTCKCSCKNTDSRCKARQLELNERTCRCDKPRR
notes: used unlabeled and biotin labeled; also called human VEGF165 (R&D Systems); hVEGFA165
B3: mouse VEGFA164 (ligand, UniProt Q00731-2 27-190, looked up)
chain: APTTEGEQKSHEVIKFMDVYQRSYCRPIETLVDIFQEYPDEIEYIFKPSCVPLMRCAGCCNDEALECVPTSESNITMQIMRIKPHQSQHIGEMSFLQHSRCECRPKKDRTKPENHCEPCSERRKHLFVQDPQTCKCSCKNTDSRCKARQLELNERTCRCDKPRR
notes: also called VEGFA (mouse VEGFR1 columns)
B4: human PlGF (ligand, UniProt P49763-2 19-149, looked up)
chain: LPAVPPQQWALSAGNGSSEVEVVPFQEVWGRSYCRALERLVDVVSEYPSEVEHMFSPSCVSLLRCTGCCGDENLHCVPVETANVTMQLLKIRSGDRPSYVELTFSQHVRCECRPLREKMKPERCGDAVPRR
notes: ligand on human and cyno VEGFR1; also called placental growth factor
B5: VGFB883 (antibody, human IgG1, lambda, L234A L235A, V domains shown)
VH: EVQLLESGGGSVQPGGSLRLSCTASGFNFEDYGMNWVRQAPGKGLDWVSSINRQGDISTYHVDSVKGRFTISRDNSKNTLYLQMNSLRAEDTAIYYCTKNHDYHGMDVWGQGTTVTVSS
VL: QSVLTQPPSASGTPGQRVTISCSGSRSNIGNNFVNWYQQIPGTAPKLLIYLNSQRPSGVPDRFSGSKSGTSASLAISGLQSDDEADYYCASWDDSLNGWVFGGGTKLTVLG
notes: human IgG1 (L234A/L235A/D265S); also called N54Q variant of VGFB54

Tests used:
human VEGFA165 [1] = target: B2; test: SPR; against the D1-D3 and D2-D3 constructs
human VEGFA165 [2] = target: B2; test: SPR; VEGFR1 D2 alone
[3] = target: T3, Recombinant human VEGFR1-Fc (R&D Systems) (human, UniProt P17948 27-687, limits assumed); test: MSD ECL competition on plate-bound human VEGFR1-Fc; competitor biotin human VEGFA165 (0.2 nM)
T3 construct: bought; not shown: Fc part of the bought fusion, not described
Summary of the method: (§1)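 MSD 384 plates were coated with Protein A/G or anti-His mAb, blocked with Blocker A, and used to capture human or mouse VEGFR1-Fc or His-tagged cyno VEGFR1 at 0.5 ug/ml for 1 hour at room temperature. Antibody in half-log dilutions was pre-incubated for 30 minutes, after which biotinylated VEGFA (0.2 nM) or PlGF (2 nM) was added. Bound ligand was detected with Sulfo-tagged streptavidin on an MSD SECTOR S 600 imager, and IC50 and maximal percent inhibition were derived from the electro-chemiluminescence signal.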

His tagged cyno VEGFR1 [4] = target: T4, His tagged cyno VEGFR1 (cynomolgus monkey, UniProt A0A2K5VAF2 27-758); test: MSD ECL competition on plate-bound His-tagged cyno VEGFR1; competitor biotin human VEGFA165 (0.2 nM)
Summary of the method: as §1

[5] = target: recombinant human VEGFR1 (D1-D3) (human, UniProt P17948 27-328, limits assumed); test: SPR; VEGFR1 D1-D3
human VEGFR1 (D2-D3) = human VEGFR1 (D2-D3) (human, UniProt P17948 130-331); test: SPR; VEGFR1 D2-D3
[6] = target: T1, Recombinant mouse VEGFR1-Fc (R&D …); test: MSD ECL competition on plate-bound mouse VEGFR1-Fc; competitor biotin mouse VEGFA164 (0.2 nM)
Summary of the method: as §1

His tagged cyno VEGFR1 [7] = target: T4, His tagged cyno VEGFR1; test: MSD ECL competition on plate-bound His-tagged cyno VEGFR1; competitor biotin human PlGF (2 nM)
Summary of the method: as §1

[8] = target: T3, Recombinant human VEGFR1-Fc (R&D …); test: MSD ECL competition on plate-bound human VEGFR1-Fc; competitor biotin PlGF (2 nM)
Summary of the method: as §1

[9] = target: T3, Recombinant human VEGFR1-Fc (R&D …); test: biochemical ligand blocking assay; ligand and receptor form not given
Summary of the method: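 In a biochemical electro-chemiluminescence ligand blocking assay, Protein A/G-coated MSD plates captured recombinant VEGFR1-Fc, which was pre-incubated with half-log dilutions of each antibody for 30 minutes. Biotinylated ligand was added next and detected with Sulfo-tagged streptavidin on an MSD imager. The readings were used to calculate IC50.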

[10] = target: human VEGFR1 (soluble antigen of the KinExA and SPR affinity assays) (human, UniProt P17948 27-758, limits assumed); test: KinExA, solution
Procedure: (§2) Kinetic exclusion assay (KEA; KinExA) was used to analyze the binding of anti-VEGFR1 antibodies to human, mouse and cynomolgus monkeys VEGFR1. KEA is a fluorescence-based solution method, and it is described in detail in the literature (Darling and Brault, 2004). To measure the affinity of an interaction, a series of solutions with a fixed concentration of one interactant (A) and varying concentrations of another interactant (B) are prepared and allowed to reach equilibrium. After equilibration, the concentration of free A is determined by flowing the equilibrated mixture through a column packed with beads modified with reactant B. Free A binds to the beads and is then detected using a fluorescently labeled polyclonal antibody.
(§3) Briefly, fixed concentrations (300 pM, 60 pM, 12 pM, 2.4 or 0.5 pM) of Ab were used to prepare a serial dilution of the antigen (2 nM to 0.52 pM, or 800 pM to 5.37 fM). The complex titrations were incubated at RT to reach binding equilibrium for at least 2 days. After incubation, the samples were run on the KinExA3200 or KinExA4000 instrument to assess free antibody in the reaction. During these studies some of the data were rejected because the experiments failed or failed the acceptance criteria. For mouse VEGFR1 the 60 and 300 pM concentrations were rejected due to high titrant related NSB. The dissociation equilibrium constant, (KD), was determined using the n-curve analysis feature of the KinExA Pro software. This program uses nonlinear least-square regression analysis of the globally fitted data to a 1:1 binding model. (CI=confidence interval).

[11] = target: cynomolgus monkey VEGFR1 (soluble antigen of the KinExA and SPR affinity assays) (cynomolgus monkey); test: KinExA, solution
Procedure: as §2, §3

[12] = target: T2, mouse VEGFR1 (soluble antigen of the …); test: KinExA, solution
Procedure: as §2, §3

[13] = target: T5, human VEGFR1, full length, over-expressed on cells (human, UniProt P17948 27-1338); test: cell binding assay (column head prints IC50)
T5 construct: on CHO-K1 or HEK cells; also called hVEGFR1; CHOK1/ human VEGFR1
T5 sequence (P17948 27-1338 limits assumed): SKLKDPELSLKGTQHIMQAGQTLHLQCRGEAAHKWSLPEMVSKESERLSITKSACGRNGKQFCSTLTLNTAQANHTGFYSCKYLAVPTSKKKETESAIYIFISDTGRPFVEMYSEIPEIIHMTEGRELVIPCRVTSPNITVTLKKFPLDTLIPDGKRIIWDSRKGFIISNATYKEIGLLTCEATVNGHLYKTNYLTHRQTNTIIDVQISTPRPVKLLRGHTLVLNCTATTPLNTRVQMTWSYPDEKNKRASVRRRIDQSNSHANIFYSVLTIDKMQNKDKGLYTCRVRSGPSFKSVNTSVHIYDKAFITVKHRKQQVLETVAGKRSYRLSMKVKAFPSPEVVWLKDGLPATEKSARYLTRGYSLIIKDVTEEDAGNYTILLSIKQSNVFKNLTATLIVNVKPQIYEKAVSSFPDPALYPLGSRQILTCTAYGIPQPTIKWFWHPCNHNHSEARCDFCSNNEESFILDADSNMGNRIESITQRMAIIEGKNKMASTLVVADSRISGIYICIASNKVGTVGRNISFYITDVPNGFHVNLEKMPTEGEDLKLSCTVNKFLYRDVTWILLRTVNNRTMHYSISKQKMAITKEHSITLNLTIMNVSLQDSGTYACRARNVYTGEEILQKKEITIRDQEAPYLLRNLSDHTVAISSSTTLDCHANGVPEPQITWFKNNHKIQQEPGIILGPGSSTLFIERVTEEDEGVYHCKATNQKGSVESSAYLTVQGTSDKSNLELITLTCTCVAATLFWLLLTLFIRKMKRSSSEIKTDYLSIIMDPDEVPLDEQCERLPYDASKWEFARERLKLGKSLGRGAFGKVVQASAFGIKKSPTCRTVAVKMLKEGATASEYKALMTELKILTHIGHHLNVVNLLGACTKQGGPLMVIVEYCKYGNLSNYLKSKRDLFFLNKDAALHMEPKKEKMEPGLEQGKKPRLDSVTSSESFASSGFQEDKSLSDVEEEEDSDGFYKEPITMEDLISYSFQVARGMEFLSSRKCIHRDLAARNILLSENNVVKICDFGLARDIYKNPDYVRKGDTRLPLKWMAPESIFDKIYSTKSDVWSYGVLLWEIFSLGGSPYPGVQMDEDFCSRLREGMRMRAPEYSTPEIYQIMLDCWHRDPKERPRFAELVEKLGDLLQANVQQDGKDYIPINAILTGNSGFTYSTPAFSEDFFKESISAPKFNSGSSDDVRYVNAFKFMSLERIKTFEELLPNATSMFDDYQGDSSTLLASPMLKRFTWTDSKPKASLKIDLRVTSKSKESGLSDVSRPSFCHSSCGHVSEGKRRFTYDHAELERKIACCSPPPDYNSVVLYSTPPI

T3 sequence (P17948 27-687 limits assumed): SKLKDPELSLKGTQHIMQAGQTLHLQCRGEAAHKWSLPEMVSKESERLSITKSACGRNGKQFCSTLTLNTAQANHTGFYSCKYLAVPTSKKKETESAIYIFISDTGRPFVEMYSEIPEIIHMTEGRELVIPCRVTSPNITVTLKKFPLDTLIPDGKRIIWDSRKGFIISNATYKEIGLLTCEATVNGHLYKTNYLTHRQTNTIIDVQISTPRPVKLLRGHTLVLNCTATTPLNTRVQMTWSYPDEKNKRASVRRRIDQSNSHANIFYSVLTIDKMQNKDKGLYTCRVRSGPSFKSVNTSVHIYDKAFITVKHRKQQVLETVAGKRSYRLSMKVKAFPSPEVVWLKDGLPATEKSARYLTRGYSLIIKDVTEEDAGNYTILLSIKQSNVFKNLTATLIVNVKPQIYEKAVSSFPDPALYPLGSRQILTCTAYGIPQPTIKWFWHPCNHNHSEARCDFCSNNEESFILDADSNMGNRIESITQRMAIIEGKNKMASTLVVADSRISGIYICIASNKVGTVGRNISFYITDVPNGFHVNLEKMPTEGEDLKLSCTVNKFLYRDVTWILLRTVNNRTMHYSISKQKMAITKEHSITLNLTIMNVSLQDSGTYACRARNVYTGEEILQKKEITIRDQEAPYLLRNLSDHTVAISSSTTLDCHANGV
Sequence of recombinant human VEGFR1 (D1-D3) (P17948 27-328 limits assumed): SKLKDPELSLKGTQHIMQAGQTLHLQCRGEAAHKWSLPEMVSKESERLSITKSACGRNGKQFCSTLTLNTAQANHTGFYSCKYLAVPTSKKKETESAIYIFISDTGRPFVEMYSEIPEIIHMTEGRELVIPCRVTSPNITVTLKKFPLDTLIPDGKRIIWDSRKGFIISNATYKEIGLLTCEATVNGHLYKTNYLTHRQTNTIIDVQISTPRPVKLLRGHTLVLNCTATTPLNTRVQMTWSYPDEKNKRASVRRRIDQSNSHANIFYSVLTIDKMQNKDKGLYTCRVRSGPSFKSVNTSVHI
Sequence of human VEGFR1 (soluble antigen of the KinExA and SPR affinity assays) (P17948 27-758 limits assumed): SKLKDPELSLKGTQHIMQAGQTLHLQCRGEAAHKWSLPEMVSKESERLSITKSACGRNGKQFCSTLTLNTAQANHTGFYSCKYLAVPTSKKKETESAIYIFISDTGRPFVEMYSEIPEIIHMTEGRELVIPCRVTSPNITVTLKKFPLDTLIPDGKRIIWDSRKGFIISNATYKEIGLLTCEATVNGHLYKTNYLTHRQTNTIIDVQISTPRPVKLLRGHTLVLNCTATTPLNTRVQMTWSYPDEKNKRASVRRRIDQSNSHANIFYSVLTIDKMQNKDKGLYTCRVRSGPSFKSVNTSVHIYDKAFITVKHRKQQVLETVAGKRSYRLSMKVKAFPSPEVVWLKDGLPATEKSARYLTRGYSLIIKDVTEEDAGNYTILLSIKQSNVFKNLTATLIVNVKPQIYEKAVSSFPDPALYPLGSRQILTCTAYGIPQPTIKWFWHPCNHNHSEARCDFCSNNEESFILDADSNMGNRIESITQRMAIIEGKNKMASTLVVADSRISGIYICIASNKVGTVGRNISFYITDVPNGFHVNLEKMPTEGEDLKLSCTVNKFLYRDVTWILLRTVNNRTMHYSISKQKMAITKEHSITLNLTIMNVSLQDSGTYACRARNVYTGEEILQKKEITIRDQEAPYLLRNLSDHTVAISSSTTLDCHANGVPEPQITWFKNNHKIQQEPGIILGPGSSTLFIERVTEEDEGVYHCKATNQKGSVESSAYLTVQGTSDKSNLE

B1
fold reduction in affinity (human VEGFA165 [1]): ~1000 fold | Kd (human VEGFA165 [2]): 22 nM

B2
IC50 [3]: 0.156 nM | Max % Inh. [3]: 100% | IC50 (His tagged cyno VEGFR1 [4]): 0.261 nM | Max % Inh. (His tagged cyno VEGFR1 [4]): 100% | Kd [5]: < 0.045 nM | Kd (human VEGFR1 (D2-D3)): < 0.03 nM

B3
IC50 [6]: 0.15 nM | Max % Inh. [6]: 99.9%

B4
IC50 (His tagged cyno VEGFR1 [7]): 13.3 nM | Max % Inh. (His tagged cyno VEGFR1 [7]): 99.2% | IC50 [8]: 8.92 nM | Max % Inh. [8]: 98.6%

B5
IC50 [9]: 0.044 nM | Kd [10]: ~0.0002 nM | Kd [11]: ~0.0005 nM | Kd [12]: > 2 nM | IC50 [13]: 0.0655 nM

Reference: patent publication US20240425603A1 (Janssen / Centocor, published 2024)
